Results on two molecules are retold here after article PMC9349188 (Nature Communications, 2022).

A word on the stoichiometry N: it is the number of molecules, sites or subunits per partner or assembly.

The target in experiment [1] is AMC009 SOSIP trimer (SOSIPv4.2) (HIV-1). In words: cell-based or functional assay.
For experiment [2], the target named is T1, AMC009 SOSIP trimer (SOSIP version not stated, negative stain EM) (HIV-1).
T1 construct: copies: 3 + 3
Description: negative stain electron microscopy. Particulars: both partners purified.

B1: ACS101 Y100fW mutant monoclonal antibody (IgG) (antibody, V domains shown)
VH: EVQLLESGAEVKKPGASVRVSCEASGYTFTKYFIHWVRQAPGHGLEWIGWINTLTSGVNYARNFQGRLTLTRDLSTETVYMDLRNLKSDDTAVYYCARGGRGYDEPWGAWTWLDPWGQGSLVTVSS
VL: SYELTQPASVSGSPGQSITISCTGSSIGSYDLVSWYQQYPGKAPKVIIFEVSKRPSGVSHRFSGSKSGNTAALTISGLQVEDEAIYHCYSYDDMIIFGGGTRLTVL
For B1, the “neutralization of the AMC009 virus (TZM-bl cells), IC50 relative to ACS101” value in experiment [1] was around 12 fold.

B2: ACS103 Fab (Fab, V domains shown)
VH: QVQLVQSGAEVKRPGASVRVSCEASGYRFTAYHIHWLRQAPGQGLEWMGWVNTLTSGVNYGWKFQGRVKMTRERSIDTDTAYLDLSGLRLDDTAVYYCARGNGKSDDERSTYQYFGPWGQGTLVTVSS
VL: QTVVTQPASVSGSPGQSITISCAGSSSDIGSYDYVSWYQQHPGKAPKVVIYDVTKRPSDISHRFSASKSGNTASLTISGLQPEDEAQYRCCTYAQTVLCGGGTKLTVL
On to B2, for which, in experiment [2], the “stoichiometry N” value was determined as 3 Fabs per trimer.
